# Laboratory results taken from patent publication US20240400677A1 (ELECTRA THERAPEUTICS, published 2024).
# T1: cynomolgus monkey SIRPγ-His monomer protein (cynomolgus monkey, UniProt Q9P1W8 29-359 (human entry), limits assumed)
# T1 construct: also called Cyno SIRPγ; Cyno SIRPγ-His
# T1 chain: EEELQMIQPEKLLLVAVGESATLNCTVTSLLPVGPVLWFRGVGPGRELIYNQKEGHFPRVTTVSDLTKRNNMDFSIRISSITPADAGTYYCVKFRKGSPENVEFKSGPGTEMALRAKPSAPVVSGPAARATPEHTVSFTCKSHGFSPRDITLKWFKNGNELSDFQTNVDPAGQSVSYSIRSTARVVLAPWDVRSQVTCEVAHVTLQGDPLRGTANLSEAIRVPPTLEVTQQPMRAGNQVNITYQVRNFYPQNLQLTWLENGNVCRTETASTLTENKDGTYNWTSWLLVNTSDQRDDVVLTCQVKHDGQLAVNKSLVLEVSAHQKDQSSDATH
# T2: cynomolgus monkey SIRPα on CHO cells (cynomolgus monkey, UniProt A0A2K5VYQ9 31-507)
# T2 construct: whole, on cells; also called Cyno SIRPα CHO
# T2 sequence: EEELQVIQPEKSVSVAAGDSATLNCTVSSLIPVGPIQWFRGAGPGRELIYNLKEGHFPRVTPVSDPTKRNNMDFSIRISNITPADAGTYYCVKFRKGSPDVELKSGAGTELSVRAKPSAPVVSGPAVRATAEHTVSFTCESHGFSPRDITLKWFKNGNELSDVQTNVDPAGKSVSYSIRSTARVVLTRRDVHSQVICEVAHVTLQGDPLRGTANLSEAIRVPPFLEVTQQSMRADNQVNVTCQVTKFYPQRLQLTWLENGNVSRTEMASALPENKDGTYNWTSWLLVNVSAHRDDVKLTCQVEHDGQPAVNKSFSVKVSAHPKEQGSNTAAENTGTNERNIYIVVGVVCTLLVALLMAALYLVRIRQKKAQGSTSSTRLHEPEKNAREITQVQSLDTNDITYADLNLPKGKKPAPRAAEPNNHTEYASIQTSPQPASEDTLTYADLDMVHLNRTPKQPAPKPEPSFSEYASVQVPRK
# T3: cynomolgus monkey SIRPγ on CHO cells (cynomolgus monkey, UniProt Q9P1W8 29-386 (human entry))
# T3 construct: also called Cyno SIRPγ CHO
# T3 chain: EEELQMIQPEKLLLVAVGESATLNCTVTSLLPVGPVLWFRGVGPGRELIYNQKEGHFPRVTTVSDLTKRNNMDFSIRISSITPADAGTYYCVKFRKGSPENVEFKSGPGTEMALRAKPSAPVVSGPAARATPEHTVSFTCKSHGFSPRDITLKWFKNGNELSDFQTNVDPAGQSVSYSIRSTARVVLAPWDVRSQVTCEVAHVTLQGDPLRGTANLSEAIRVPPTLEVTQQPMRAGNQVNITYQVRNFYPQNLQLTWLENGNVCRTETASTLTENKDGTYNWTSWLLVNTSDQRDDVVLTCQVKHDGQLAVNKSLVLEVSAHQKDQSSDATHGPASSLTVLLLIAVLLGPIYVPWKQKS
# What was measured:
# [1] = target: T4, human SIRPγ-His monomer protein (human, UniProt Q9P1W8 29-360); test: BLI Octet, V5-scFv PPE captured, SIRP-His 500 nM
# T4 construct: also called hSIRPγ
# [2] = target: T1, cynomolgus monkey SIRPγ-His monomer …; test: BLI Octet, captured scFv PPE, cyno SIRP
# Procedure: Unique binders were further tested for binding to human SIRPαV1, human SIRPαV2, and human SIRPβ1. Briefly, biotinylated anti-V5 was immobilized onto streptavidin biosensors. Each V5-tagged SIRPγ scFv antibody as crude PPE was captured by the anti-V5 antibody. SIRP-His monomer protein at 500 nM was exposed to the biosensor for binding to SIRP scFv. The biosensors were then exposed to wash buffer to measure off-rate kinetics. The resulting association and dissociation kinetics (kdis) was analyzed. […] Similarly, cross-reactivity to cynomolgus monkey SIRPγ, cynomolgus monkey SIRPα, and cynomolgus monkey SIRPβ1 were tested.
# [3] = target: T5, human SIRPβ1 on CHO cells (co-transfected with DAP12) (human, UniProt O00241 30-398); test: flow cytometry
# T5 construct: whole, on cells; co-transfected with DAP12; also called Human SIRPβ1 CHO
# [4] = target: T2, cynomolgus monkey SIRPα on CHO cells; test: flow cytometry
# [5] = target: T3, cynomolgus monkey SIRPγ on CHO cells; test: flow cytometry, myc-scFv PPE
# How it was run: (§1)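 Read-out is median fluorescence intensity for each antibody concentration, measured after a titration series is bound to stably transfected CHO cells and stained with labelled anti-human IgG. The scFv data come from myc-tagged crude PPE, also run on parental CHO-K1, where fold change below 2.0 denotes no binding.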
# [6] = target: T6, human SIRPγ on stably transfected CHO cells (human, UniProt Q9P1W8 29-387); test: flow cytometry, myc-scFv PPE
# T6 construct: also called Human SIRPγ CHO
# How it was run: as §1
# [7] = target: T5, human SIRPβ1 on CHO cells …; test: flow cytometry, CHO transfectants, anti-human IgG
# How it was run: as §1
# [8] = target: T6, human SIRPγ on stably transfected CHO …; test: flow cytometry, CHO transfectants, anti-human IgG
# How it was run: as §1
# [9] = target: T2, cynomolgus monkey SIRPα on CHO cells; test: flow cytometry, CHO transfectants, anti-human IgG
# How it was run: as §1
# T6 sequence (Q9P1W8 29-387 limits assumed): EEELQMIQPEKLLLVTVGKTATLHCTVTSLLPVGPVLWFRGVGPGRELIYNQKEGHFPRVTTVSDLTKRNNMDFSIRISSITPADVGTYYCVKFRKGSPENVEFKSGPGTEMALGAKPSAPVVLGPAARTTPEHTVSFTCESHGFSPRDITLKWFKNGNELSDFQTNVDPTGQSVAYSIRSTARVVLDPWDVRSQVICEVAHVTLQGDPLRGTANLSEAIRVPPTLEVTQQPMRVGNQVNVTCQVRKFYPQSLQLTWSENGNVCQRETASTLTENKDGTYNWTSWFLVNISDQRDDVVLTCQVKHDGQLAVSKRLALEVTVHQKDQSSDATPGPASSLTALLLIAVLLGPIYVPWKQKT
# T4 sequence (Q9P1W8 29-360 limits assumed): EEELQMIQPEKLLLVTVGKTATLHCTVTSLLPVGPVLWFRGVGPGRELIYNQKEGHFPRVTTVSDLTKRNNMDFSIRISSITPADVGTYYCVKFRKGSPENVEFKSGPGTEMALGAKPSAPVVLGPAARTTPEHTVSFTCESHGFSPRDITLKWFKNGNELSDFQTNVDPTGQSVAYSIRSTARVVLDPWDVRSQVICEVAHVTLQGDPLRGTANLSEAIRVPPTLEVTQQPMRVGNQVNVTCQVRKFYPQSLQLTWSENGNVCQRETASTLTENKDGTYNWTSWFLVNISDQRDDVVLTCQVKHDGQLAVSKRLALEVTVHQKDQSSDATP
# T5 sequence (O00241 30-398): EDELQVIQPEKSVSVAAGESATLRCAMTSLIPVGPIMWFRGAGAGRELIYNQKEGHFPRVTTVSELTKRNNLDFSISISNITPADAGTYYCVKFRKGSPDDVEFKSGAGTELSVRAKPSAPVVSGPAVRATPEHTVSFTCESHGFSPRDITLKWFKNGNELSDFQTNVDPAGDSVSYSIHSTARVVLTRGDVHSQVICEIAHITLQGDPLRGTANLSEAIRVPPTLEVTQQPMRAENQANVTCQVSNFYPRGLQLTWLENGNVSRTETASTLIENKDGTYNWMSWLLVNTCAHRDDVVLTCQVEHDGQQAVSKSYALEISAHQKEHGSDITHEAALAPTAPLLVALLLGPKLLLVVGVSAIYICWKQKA
kdis [1],binding result [2],binding result [3],binding result [4],MFI fold change over parental CHO [5],MFI fold change over parental CHO [6],binding result [7],EC50 (read off the curve) [8],binding result [9],Binder
0.001 to 0.01 s⁻¹,binds,no binding (tested: fold change <2.0),no binding (tested: fold change <2.0),16.2 fold,25.2 fold,,,,"Antibody 18 (scFv, V domains shown, scFv in crude PPE, V5/myc-tagged) VH: QVQLVQSGAEVKKPGASVKVSCKASGYTFTGYYMHWVRQAPGQGLEWMGWMNPNSGNTGYAQKFQGRVTMTRDTSTSTVYMELSSLRSEDTAVYYCARGSGYDAGVFDYWGQGTLVTVSS VL: DIQMTQSPSSLSASVGDRVTITCRASQGIGNDLAWYQQKPGKAPKLLIYDAKDLHPGVPSRFSGSGSGTDFTLTISSLQPEDFATYYCQQSYSFPRTFGQGTRLEIK"
0.001 to 0.01 s⁻¹,binds,no binding (tested: fold change <2.0),no binding (tested: fold change <2.0),3.71 fold,17 fold,,,,"Antibody 15 (scFv, V domains shown, scFv in crude PPE, V5/myc-tagged) VH: QVQLVQSGAEVKKPGASVKVSCKASGYSFTSYGISWVRQAPGQGLEWMGWISPYNGNTNYAQKLQGRVTMTRDTSTSTVYMELSSLRSEDTAVYYCAREAYGDYGDYFDYWGQGTLVTVSS VL: DIQMTQSPSSLSASVGDRVTITCRASQGVGDRSAWYQQKPGKAPKLLIYDASNLETGVPSRFSGSGSGTDFTLTISSLQPEDFATYYCQQADTFPYTFGQGTKLEIK"
,,,,,,no binding (tested: about 20 µg/mL),~0.5 µg/mL,no binding (tested: about 20 µg/mL),"Antibody 65 (antibody, V domains shown) VH: QVQLVQSGAEVKKPGASVKVSCKASGYTFTSHDINWVRQAPGQGLEWMGWMNANNGNAGYAQKFQGRVTMTRDTSTSTVYMELSSLRSEDTAVYYCAKDLSPSSSWSTYYYYYGMDVWGQGTMVTVSS VL: DIQMTQSPSSLSASVGDRVTITCRASQSISNLLAWYQQKPGKAPKLLIYAASSLQSGVPSRFSGSGSGTDFTLTISSLQPEDFATYYCQQSYSTPYTFGQGTKLEIK"
0.001 to 0.01 s⁻¹,binds,no binding (tested: fold change <2.0),no binding (tested: fold change <2.0),16.5 fold,21.6 fold,,,,"Antibody 23 (scFv, V domains shown, scFv in crude PPE, V5/myc-tagged) VH: QVQLVQSGAEVKKPGASVKVSCKASGGTFSNYDINWVRQAPGQGLEWMGWISAYNGNTNYAQKLQGRVTMTRDTSTSTVYMELSSLRSEDTAVYYCAAEAYGDYSLDPWGQGTLVTVSS VL: DIQMTQSPSSLSASVGDRVTITCQASQGISSYLNWYQQKPGKAPKLLIYAASSLQNGVPSRFSGSGSGTDFTLTISSLQPEDFATYYCQQSYSTPITFGQGTRLEIK"
0.001 to 0.01 s⁻¹,binds,no binding (tested: fold change <2.0),no binding (tested: fold change <2.0),3.76 fold,5.94 fold,,,,"Antibody 30 (scFv, V domains shown, scFv in crude PPE, V5/myc-tagged) VH: QVQLVQSGAEVKKPGASVKVSCKASGYTFTNFDINWVRQAPGQGLEWMGWISAYNGHTNYAQNLQGRVTMTRDTSTSTVYMELSSLRSEDTAVYYCAQEAAAGYFDYWGQGTLVTVSS VL: DIQMTQSPSSLSASVGDRVTITCRASQDIRNDLAWYQQKPGKAPKLLIYDASNLETGVPSRFSGSGSGTDFTLTISSLQPEDFATYYCQQSYGTPYTFGQGTKLEIK"
0.001 to 0.01 s⁻¹,binds,no binding (tested: fold change <2.0),no binding (tested: fold change <2.0),21.3 fold,18.1 fold,,,,"Antibody 31 (scFv, V domains shown, scFv in crude PPE, V5/myc-tagged) VH: QVQLVQSGAEVKKPGASVKVSCKASGGTFRSYAISWVRQAPGQGLEWMGWMNPNSGNTGYAQKFQGRVTMTRDTSTSTVYMELSSLRSEDTAVYYCARESVLKGGMDVWGQGTTVTVSS VL: DIVMTQSPDSLAVSLGERATINCRSSQSLFHSSTNANNLAWYQQKPGQPPKLLIYWASTRESGVPDRFSGSGSGTDFTLTISSLQAEDVAVYYCQQYYITPLTFGQGTRLEIK"
0.001 to 0.01 s⁻¹,binds,no binding (tested: fold change <2.0),no binding (tested: fold change <2.0),10.3 fold,19.5 fold,,,,"Antibody 25 (scFv, V domains shown, scFv in crude PPE, V5/myc-tagged) VH: EVQLLESGGGLVQPGGSLRLSCAASGFTVGSWYMSWVRQAPGKGLEWVAHVSDDGSNEFYADSVKGRFTISRDNSKNTLYLQMNSLRAEDTAVYYCARSPGYCSSTSCYRYYGMDVWGQGTTVTVSS VL: DIQMTQSPSSLSASVGDRVTITCRTSQSIGTYLNWYQQKPGKAPKLLIYDASNLPTGVPSRFSGSGSGTDFTLTISSLQPEDFATYYCQNYNSALFGPGTKVDIK"
0.001 to 0.01 s⁻¹,binds,no binding (tested: fold change <2.0),no binding (tested: fold change <2.0),23.1 fold,38.3 fold,,,,"Antibody 10 (scFv, V domains shown, scFv in crude PPE, V5/myc-tagged) VH: QVQLVQSGAEVKKPGASVKVSCKASGGTFSNYDISWVRQAPGQGLEWMGMIDPSGGSTSYAQKFQGRVTMTRDTSTSTVYMELSSLRSEDTAVYYCARPYSSGWYYFDYWGQGTLVTVSS VL: DIQMTQSPSSLSASVGDRVTITCQASQDIHNYLNWYQQKPGKAPKLLIYDASNLETGVPSRFSGSGSGTDFTLTISSLQPEDFATYYCQQSYNTPPTFGQGTRLEIK"
